Data published in patent US20250122303A1 (HUMMINGBIRD BIOSCIENCE PTE, published 2025).
Where a chain is given by its changes, count along the chain named. One block for each binder: values may come before it.

Tests used:
His-tagged human HER3 [1] = molecular target: T1, His-tagged human HER3 (human, UniProt P21860 20-643); experiment: BLI (Octet QK384), antibody on anti-human IgG capture tips, His-tagged human HER3 in solution, global 1:1 fit, R^2 = 0.9946, kon Error 5.99E+03; Response 0.119 / 0.2877 / 0.4777 / 0.6639 at 35 / 69 / 139 / 278 nM
T1 construct: Antigen of the BLI experiments and of the HER2-Fc dimerisation ELISA; also called HER3 His; not shown: His tag
Description: (§1) The anti-HER3 antibody clones in IgG1 format were analysed for binding affinity to human HER3. Bio-Layer Interferometry (BLI) experiments were performed using the Octet QK384 system (ForteBio). anti-Human IgG Capture (AHC) Octet sensor tips (Pall ForteBio, USA) were used to anti-HER3 antibodies (25 nM). All measurements were performed at 25° C. with agitation at 1000 rpm. […] Sensograms were referenced for buffer effects and then fitted using the Octet QK384 user software (Pall ForteBio, USA). Kinetic responses were subjected to a global fitting using a one site binding model to obtain values for association (Kₒₙ), dissociation (Koff) rate constants and the equilibrium dissociation constant (KD). Only curves that could be reliably fitted with the software (R²>0.90) were included in the analysis.

His-tagged human HER3 [2] = molecular target: T1, His-tagged human HER3; experiment: BLI (Octet QK384), antibody on anti-human IgG capture tips, His-tagged human HER3 35-278 nM, global 1:1 fit
Description: as §1

His-tagged human HER3 [3] = molecular target: T1, His-tagged human HER3; experiment: BLI (Octet QK384), antibody on anti-human IgG capture tips, His-tagged human HER3 in solution, global one-site fit
Description: as §1

His-tagged human HER3 [4] = molecular target: T1, His-tagged human HER3; experiment: BLI (Octet QK384), antibody on anti-human IgG capture tips, His-tagged human HER3 in solution, global 1:1 fit, R^2 = 0.9951, kon Error 5.36E+03; Response 0.0037 / 0.1082 / 0.2868 / 0.3903 at 35 / 69 / 139 / 278 nM
Description: as §1

His-tagged human HER3 [5] = molecular target: T1, His-tagged human HER3; experiment: BLI (Octet QK384), antibody on anti-human IgG capture tips, His-tagged human HER3 in solution, global 1:1 fit, R^2 = 0.9954, kon Error 4.57E+03; Response 0.0786 / 0.1929 / 0.3283 / 0.5147 at 35 / 69 / 139 / 278 nM
Description: as §1

His-tagged human HER3 [6] = molecular target: T1, His-tagged human HER3; experiment: BLI (Octet QK384), antibody on anti-human IgG capture tips, His-tagged human HER3 35-278 nM, global 1:1 fit; kdis Error 1.00E-04
Description: as §1

His-tagged human HER3 [7] = molecular target: T1, His-tagged human HER3; experiment: BLI (Octet QK384), antibody on anti-human IgG capture tips, His-tagged human HER3 in solution, global 1:1 fit, R^2 = 0.9915, kon Error 7.36E+03; Response 0.114 / 0.2569 / 0.4134 / 0.5768 at 35 / 69 / 139 / 278 nM
Description: as §1

His-tagged human HER3 [8] = molecular target: T1, His-tagged human HER3; experiment: BLI (Octet QK384), antibody on anti-human IgG capture tips, His-tagged human HER3 35-278 nM, global 1:1 fit; kdis Error 1.16E-04
Description: as §1

His-tagged human HER3 [9] = molecular target: T1, His-tagged human HER3; experiment: BLI (Octet QK384), antibody on anti-human IgG capture tips, His-tagged human HER3 in solution, global 1:1 fit, R^2 = 0.9957, kon Error 3.54E+03; Response 0.0338 / 0.0911 / 0.1967 / 0.3885 at 35 / 69 / 139 / 278 nM
Description: as §1

mouse HER3 = molecular target: T2, mouse HER3 (mouse, UniProt Q61526 20-641); experiment: ELISA, plate coated with 0.1 ug/ml mouse HER3, antibody titrated, absorbance 450 nm
T2 construct: also called mouse homologue of HER3 (Sino Biological Inc.); M. musculus HER3
Description: (§2) ELISAs were used to determine the binding specificity of the antibodies. The antibodies were analysed for binding to human HER3 polypeptide, as well as respective mouse, rat and monkey homologues of HER3 (Sino Biological Inc., China). The antibodies were also analysed for their ability to bind to human EGFR and human HER2 (Sino Biological Inc., China).
(§3) ELISAs were carried out according to standard protocols. Briefly, 96-well plates (Nunc, Denmark) were coated with 0.1 μg/ml of target polypeptide in phosphate-buffered saline (PBS) for 16 h at 4° C. After blocking for 1 h with 1% BSA in Tris buffer saline (TBS) at room temperature, the anti-HER3 antibody was serially diluted with the highest concentration being 10 μg/ml, and added to the plate. Post 1 h incubation at room temperature, plates were washed three times with TBS containing 0.05% Tween 20 (TBS-T) and were then incubated with a HRP-conjugated […] antibody (Life Technologies, Inc., USA) for 1 h at room temperature. After washing, plates were developed with colorimetric detection substrate 3,3′,5,5′-tetramethylbenzidine (Turbo-TMB; Pierce, USA) for 10 min. The reaction was stopped with 2M H₂SO₄, and OD was measured at 450 nm.

human EGFR = molecular target: T3, human EGFR (human, UniProt P00533 25-645); experiment: ELISA, plate coated with 0.1 ug/ml human EGFR, antibody titrated, absorbance 450 nm
T3 construct: also called human HER1 (EGFR) (Sino Biological Inc.)
Description: as §2, §3

[10] = molecular target: T4, human HER3 expressed on cells (HEK293 HER3 O/E cells) (human, UniProt P21860 20-1342); experiment: flow cytometry, HEK293 cells overexpressing human HER3, 20 ug/ml antibody, FITC anti-Fc secondary; same antibody on WT HEK293: 17.31
T4 construct: Also used here for HER3 on U2OS cells of the PathHunter kit and on cancer cell lines; also called HEK293 cells transfected with vector encoding human HER3; human HER3-expressing cells
Description: (§4) The cells were washed thrice with FACS buffer (PBS with 5 mM EDTA and 0.5% BSA) and resuspended in FITC-conjugated anti-FC antibody (Invitrogen, USA) for 40 min at 2-8° C. Cells were washed again and resuspended in 200 μL of FACS flow buffer (PBS with 5 mM EDTA) for flow cytometric analysis using MACSQuant 10 (Miltenyi Biotec, Germany). After acquisition, all raw data were analyzed using Flowlogic software. Cells were gated using forward and side scatter profile percentage of positive cells was determined for native and overexpressing cell populations.

human HER2 = molecular target: T5, human HER2 (human, UniProt P04626 23-652); experiment: ELISA, plate coated with 0.1 ug/ml human HER2, antibody titrated, absorbance 450 nm
T5 construct: also called human HER2 (Sino Biological Inc.)
Description: as §2, §3

[11] = molecular target: T4, human HER3 expressed on cells (HEK293 …); experiment: flow cytometry, HEK293 cells overexpressing human HER3, 20 ug/ml antibody, FITC anti-Fc secondary; same antibody on WT HEK293: 17.31; remark: listed apart in the source
Description: as §4

rat HER3 = molecular target: T6, rat HER3 (rat, UniProt Q62799 20-641, limits assumed); experiment: ELISA, plate coated with 0.1 ug/ml rat HER3, antibody titrated, absorbance 450 nm
T6 construct: also called rat homologue of HER3 (Sino Biological Inc.); R. norvegicus HER3
Description: as §2, §3

[12] = molecular target: T4, human HER3 expressed on cells (HEK293 …); experiment: flow cytometry, HEK293 cells overexpressing human HER3, 20 ug/ml antibody, FITC anti-Fc secondary; same antibody on WT HEK293: 8.15
His-tagged human HER3 [13] = molecular target: T1, His-tagged human HER3; experiment: BLI (Octet QK384), antibody captured on AHC sensors, His-tagged human HER3 in solution, without NRG1
[14] = molecular target: T4, human HER3 expressed on cells (HEK293 …); experiment: flow cytometry on HEK293T HER3 O/E cells, 10 ug antibody as printed, FITC-conjugated anti-Fc secondary
Description: The cells were washed with buffer (PBS with 2 mM EDTA and 0.5% BSA) and resuspended in FITC-conjugated anti-FC antibody (Invitrogen, USA) at 10 μg/ml for 20 min at 4° C. Cells were washed again and resuspended in 200 μL of FACS flow buffer (PBS with 5 mM EDTA) for flow cytometric analysis using MACSQuant 10 (Miltenyi Biotec, Germany). Unstained WT and transfected HEK293 cells were included in the analysis as negative controls. After acquisition, all raw data were analyzed using Flowlogic software. Cells were gated using forward and side scatter profile percentage of positive cells was determined for native and overexpressing cell populations.

[15] = molecular target: T4, human HER3 expressed on cells (HEK293 …); experiment: flow cytometry, HEK293 cells overexpressing human HER3, 20 ug/ml antibody, FITC anti-Fc secondary; same antibody on WT HEK293: 1.91

T2 sequence (Q61526 20-641 limits assumed): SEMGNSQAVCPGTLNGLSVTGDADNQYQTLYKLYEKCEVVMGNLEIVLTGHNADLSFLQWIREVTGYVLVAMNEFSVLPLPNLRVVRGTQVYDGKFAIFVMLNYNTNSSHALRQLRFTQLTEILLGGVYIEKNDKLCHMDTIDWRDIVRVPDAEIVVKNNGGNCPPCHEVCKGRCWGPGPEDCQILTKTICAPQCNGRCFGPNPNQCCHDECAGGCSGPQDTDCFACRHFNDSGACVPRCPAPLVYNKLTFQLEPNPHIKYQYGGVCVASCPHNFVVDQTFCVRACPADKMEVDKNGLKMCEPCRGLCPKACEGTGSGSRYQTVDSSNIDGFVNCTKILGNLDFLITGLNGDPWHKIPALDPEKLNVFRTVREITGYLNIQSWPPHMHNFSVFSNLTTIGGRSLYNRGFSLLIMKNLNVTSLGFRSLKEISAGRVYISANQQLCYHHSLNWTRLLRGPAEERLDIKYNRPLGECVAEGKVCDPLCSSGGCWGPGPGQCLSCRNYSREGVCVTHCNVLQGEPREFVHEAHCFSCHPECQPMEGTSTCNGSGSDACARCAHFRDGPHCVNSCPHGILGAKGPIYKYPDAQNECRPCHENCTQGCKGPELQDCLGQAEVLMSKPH
T6 sequence (Q62799 20-641 limits assumed): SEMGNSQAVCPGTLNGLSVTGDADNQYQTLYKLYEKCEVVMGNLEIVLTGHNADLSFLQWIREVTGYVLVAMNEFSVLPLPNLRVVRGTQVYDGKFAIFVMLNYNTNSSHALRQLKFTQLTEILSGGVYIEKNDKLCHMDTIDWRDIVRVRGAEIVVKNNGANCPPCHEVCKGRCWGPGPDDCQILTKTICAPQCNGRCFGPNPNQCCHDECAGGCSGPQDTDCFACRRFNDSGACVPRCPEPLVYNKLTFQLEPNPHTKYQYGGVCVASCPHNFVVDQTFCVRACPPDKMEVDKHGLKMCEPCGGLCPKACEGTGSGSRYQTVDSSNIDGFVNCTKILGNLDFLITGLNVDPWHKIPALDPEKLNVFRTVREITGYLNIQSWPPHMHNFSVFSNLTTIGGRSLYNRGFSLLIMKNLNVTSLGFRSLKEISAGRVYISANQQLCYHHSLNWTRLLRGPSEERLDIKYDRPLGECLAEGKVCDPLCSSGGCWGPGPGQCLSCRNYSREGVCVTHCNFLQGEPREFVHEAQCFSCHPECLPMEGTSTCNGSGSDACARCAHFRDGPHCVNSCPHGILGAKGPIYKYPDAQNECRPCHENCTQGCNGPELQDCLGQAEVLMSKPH

B1: anti-HER3 clone 10D1_c93 IgG1 (antibody, V domains shown)
VH: DVQLQEWGAGLLKPSETLSLTCAVTGYSITSGYSWHWIRQFPGNGLEWIGSIHYSGGTNYNPSLKSRITISRDTSKNQFSLRLSSVTAADTAVYFCARMTTAPRYPFDYWGQGTLVTVSS
VL: DIVMTQSPSSLSASVGDRVTITCKASQIVGSNVAWYQQKPGKSPKPLIYSASYLYSDVPSRFSGSGSGTDFTMTISSLQPEDVATYYCQQYSSHPLTFGPGTKVEIKR
notes: Humanised 10D1 variant, IgG1/kappa
- kon (His-tagged human HER3 [1]): 188000 M⁻¹ s⁻¹
- koff (His-tagged human HER3 [2]): < 1e-07 s⁻¹
- Kd (His-tagged human HER3 [3]): < 0.001 nM

B2: anti-HER3 clone 10D1_c76 IgG1 (antibody, V domains shown)
VH: B1 VH with R82K
VL: B1 VL with V15G, S31Y, G64A, M73L, T85E, Y87F
notes: as for B1
- kon (His-tagged human HER3 [4]): 148000 M⁻¹ s⁻¹
- koff (His-tagged human HER3 [2]): < 1e-07 s⁻¹
- Kd (His-tagged human HER3 [3]): < 0.001 nM

B4: anti-HER3 clone 10D1_c87 IgG1 (antibody, V domains shown)
VH: B1 VH
VL: B1 VL with K39M, K45E
notes: as for B1
- kon (His-tagged human HER3 [7]): 188000 M⁻¹ s⁻¹
- koff (His-tagged human HER3 [2]): < 1e-07 s⁻¹
- Kd (His-tagged human HER3 [3]): < 0.001 nM

B5: anti-HER3 clone 10D1_c85o2 IgG1 (antibody, V domains shown)
VH: B1 VH with N44K, H53R, R82K, S84G, M99G
VL: B1 VL with S52R, L54Q, D57G, S60F, M73L
notes: Humanised 10D1 variant, IgG1/kappa; also called 10D1_c8502
- koff (His-tagged human HER3 [8]): 0.00168 s⁻¹
- kon (His-tagged human HER3 [9]): 97400 M⁻¹ s⁻¹
- Kd (His-tagged human HER3 [3]): 17.3 nM

B6: anti-HER3 clone 4-35-B2 IgG1 (antibody, V domains shown)
VH: EIQLQQSGPELVKPGASVKVSCKASGYSFTDYNMYWVKQSHGKSLEWIGHINPYNGGTTYNQKFKGRATLTVDKSSSTAFMHLNSLTSEDSAVYFCVSLRWGAMDYWGQGTSVTVSS
VL: QIVLTQSPALMSASPGEKVTMTCSASSSVSYMYWYQQKPRSSPKPWIYLTSNLASGVPARFSGSGSGTSYSLTISSMEAEDAATYYCQQWNSNPYTFGGGTKLEIKR
notes: Human-mouse chimeric IgG1/kappa
- binding result (mouse HER3): binds
- binding result (human EGFR): binds
- % Parent (HE3 positive) [10]: 43.2%
- binding result (human HER2): binds
- % Parent (HE3 positive) [11]: 43.2%
- Kd (His-tagged human HER3 [3]): 80.9 nM
- binding result (rat HER3): binds

More lines, now with the values ahead:

- kon (His-tagged human HER3 [5]): 147000 M⁻¹ s⁻¹
- koff (His-tagged human HER3 [6]): 6.01e-05 s⁻¹
- Kd (His-tagged human HER3 [3]): 0.41 nM
B3: anti-HER3 clone 10D1_11B IgG1 (antibody, V domains shown)
VH: B1 VH with T25Y, F41P, N44K, I68V, R82K, F95Y
VL: B1 VL with L54G, M73L, Q79R
notes: Humanised 10D1 variant, IgG1/kappa; also called v11b78L; C78 v11b

- % Parent (HE3 positive) [12]: 98.7%
- Kd (His-tagged human HER3 [13]): < 0.001 nM
- koff (His-tagged human HER3 [13]): < 1e-07 s⁻¹
- kon (His-tagged human HER3 [13]): 79800 M⁻¹ s⁻¹
- % Parent (HER3 positive) [14]: 74.4%
- % Parent (HER3 positive) [15]: 99.5%
B7: LJM716 (antibody, V domains shown)
VH: EVQLLESGGGLVQPGGSLRLSCAASGFTFSSYAMSWVRQAPGKGLEWVSAINSQGKSTYYADSVKGRFTISRDNSKNTLYLQMNSLRAEDTAVYYCARWGDEGFDIWGQGTLVTVSS
VL: DIQMTQSPSSLSASVGDRVTITCRASQGISNWLAWYQQKPGKAPKLLIYGASSLQSGVPSRFSGSGSGTDFTLTISSLQPEDFATYYCQQYSSFPTTFGQGTKVEIK
